The results in this text go back to patent US20170298113A1 (TEL HASHOMER MEDICAL RESEARCH INFRASTRUCTURE AND SERVICES, published 2017).

*1 amine or outer side, *2 acyl side, *3 side chain or, on linkers, in order; H or OH if unused. Bridges are numbered along the chain shown (N, C = ends). Primed or numbered codes have the meaning given here. [ ]: non-standard residue; d: D form. N(2-mercaptoethyl)Gly = O=C(CN(CCS[*:3])[*:1])[*:2]; FITC′ = fluorescein isothiocyanate; GABA = NCCCC(=O)O

In assay [1] the target is human somatostatin receptor subtype SSTR5 (human) (UniProt P35346). The assay can be described thus: FACS, transfected HEK-293 cells. (In flow cytometry, cells or beads pass a laser one at a time.)
Assay [2] deals with human somatostatin receptor subtype SSTR1 (human) (UniProt P30872). Nature of the assay: FACS, transfected HEK-293 cells.
The target of assay [3] is human somatostatin receptor subtype SSTR3 (human) (UniProt P32745). The assay can be described thus: FACS, transfected HEK-293 cells.
For assay [4], the target named is human somatostatin receptor subtype SSTR4 (human) (UniProt P31391). Nature of the assay: FACS, transfected HEK-293 cells.
The target in assay [5] is human somatostatin receptor subtype SSTR2 (human) (UniProt P30874). The assay can be described thus: FACS, transfected HEK-293 cells.
The target of assay [6] is human somatostatin receptor subtype SSTR5 (human) (UniProt P35346). The assay can be described thus: FACS, transfected HEK-293 cells; row normalised to highest.
In assay [7] the target is human somatostatin receptor subtype SSTR1 (human) (UniProt P30872). The assay is described as above.
The target in assay [8] is human somatostatin receptor subtype SSTR3 (human) (UniProt P32745). The assay is described as above.
The target in assay [9] is human somatostatin receptor subtype SSTR4 (human) (UniProt P31391). The description is as above.
Assay [10] has as its target human somatostatin receptor subtype SSTR2 (human) (UniProt P30874). Described as above.
For assay [11], the target named is human somatostatin receptor subtype SSTR5 (human) (UniProt P35346). Nature of the assay: FACS, transfected HEK-293 cells; normalised to Compound 1.
Assay [12] has as its target human somatostatin receptor subtype SSTR1 (human) (UniProt P30872). Described as above.
Assay [13] concerns the target human somatostatin receptor subtype SSTR3 (human) (UniProt P32745). Described as above.
Assay [14] has as its target human somatostatin receptor subtype SSTR4 (human) (UniProt P31391). The description is as above.
Assay [15] concerns the target human somatostatin receptor subtype SSTR2 (human) (UniProt P30874). The description is as above.
The target in assay [16] is T1, human somatostatin receptor subtype SSTR2 (human, UniProt P30874 1-369).
T1 construct: whole, on cells
Nature of the assay: FACS, transfected HEK-293 cells; row normalised to highest. The procedure: (§1) Biological activity assessment of the compounds to define a specific affinity to each subtype was performed by FACS and fluorescence imaging methods.
(§2) The transfection process is illustrated in FIG. 1. The transient transfection process was carried out before each experiment. Briefly, HEK cells were cultured in standard cell growth conditions. For testing, the cells were transferred into 96-well plates. The tested compounds were dissolved in DMSO and then diluted in a buffer solution to a final DMSO concentration of 5% as a composition according to the teachings herein. Various amounts of the thus-prepared compositions were added to the cells in medium in the 96-well plates and allowed to incubate for between 1 and 24 hours. Binding was determined using fluorescent microscopy and FACS.
(§3) The cells were incubated for additional time intervals ranging from 0.5-24 hr. At the end of the incubation period, supernatant was discarded and the cells were washed twice with cold PBS. The plates were examined using IX81 inverted microscope (Olympus, Japan) equipped with PR71 digital camera. Additionally, a FACS assay was used for quantitative analysis.

For assay [17], the target named is T2, human somatostatin receptor subtype SSTR3 (human, UniProt P32745 1-418).
T2 construct: whole, on cells
The assay is described as above. The procedure: as §1, §2, §3

Assay [18] concerns the target T3, human somatostatin receptor subtype SSTR5 (human, UniProt P35346 1-364).
T3 construct: whole, on cells; also called SSTRS
The assay is described as above. The procedure:
as §1, §2, §3

Assay [19] has as its target T4, human somatostatin receptor subtype SSTR1 (human, UniProt P30872 1-391).
T4 construct: whole, on cells
The description is as above. As for the experimental part:
as §1, §2, §3

Assay [20] has as its target T5, human somatostatin receptor subtype SSTR4 (human, UniProt P31391 1-388).
T5 construct: whole, on cells
The description is as above. As for the experimental part: as §1, §2, §3

Assay [21] concerns the target T1, human somatostatin receptor subtype …. Nature of the assay: FACS, transfected HEK-293 cells. The procedure: as §1, §2, §3
The target in assay [22] is T2, human somatostatin receptor subtype …. Nature of the assay: FACS, transfected HEK-293 cells. As for the experimental part:
as §1, §2, §3

Assay [23] addresses T3, human somatostatin receptor subtype …. The assay can be described thus: FACS, transfected HEK-293 cells. The procedure:
as §1, §2, §3

Assay [24] has as its target T5, human somatostatin receptor subtype …. The assay can be described thus: FACS, transfected HEK-293 cells. As for the experimental part: as §1, §2, §3
The target in assay [25] is T1, human somatostatin receptor subtype …. Nature of the assay: FACS, transfected HEK-293 cells; normalised to Compound 1. As for the experimental part:
as §1, §2, §3

For assay [26], the target named is T2, human somatostatin receptor subtype …. The description is as above. As for the experimental part:
as §1, §2, §3

Assay [27] deals with T3, human somatostatin receptor subtype …. Described as above. As for the experimental part: as §1, §2, §3
Assay [28] deals with T4, human somatostatin receptor subtype …. The assay is described as above. As for the experimental part:
as §1, §2, §3

Assay [29] deals with T5, human somatostatin receptor subtype …. The description is as above. The procedure: as §1, §2, §3

Sequence of human somatostatin receptor subtype SSTR5 (human) (P35346 whole entry): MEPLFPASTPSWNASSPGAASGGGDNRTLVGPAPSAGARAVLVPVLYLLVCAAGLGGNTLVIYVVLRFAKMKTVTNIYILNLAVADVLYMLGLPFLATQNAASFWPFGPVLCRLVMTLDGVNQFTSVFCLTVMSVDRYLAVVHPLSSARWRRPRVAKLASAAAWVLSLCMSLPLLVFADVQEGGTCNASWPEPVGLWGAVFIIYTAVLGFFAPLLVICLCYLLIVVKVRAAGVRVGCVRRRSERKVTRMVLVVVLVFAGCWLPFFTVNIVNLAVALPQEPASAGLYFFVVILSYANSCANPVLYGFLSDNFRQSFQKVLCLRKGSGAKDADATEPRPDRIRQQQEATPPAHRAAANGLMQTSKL
T3 sequence (P35346 whole entry): as above
Sequence of human somatostatin receptor subtype SSTR1 (human) (P30872 whole entry): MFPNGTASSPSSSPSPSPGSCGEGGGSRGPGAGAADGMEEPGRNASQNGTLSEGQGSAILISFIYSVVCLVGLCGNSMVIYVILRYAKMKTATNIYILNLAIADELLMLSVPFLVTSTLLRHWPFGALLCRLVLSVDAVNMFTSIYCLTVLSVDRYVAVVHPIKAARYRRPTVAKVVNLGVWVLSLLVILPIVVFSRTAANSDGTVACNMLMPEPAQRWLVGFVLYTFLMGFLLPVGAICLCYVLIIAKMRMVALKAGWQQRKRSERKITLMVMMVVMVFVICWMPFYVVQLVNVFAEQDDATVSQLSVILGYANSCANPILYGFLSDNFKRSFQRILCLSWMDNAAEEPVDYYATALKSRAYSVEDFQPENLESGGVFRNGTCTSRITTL
Sequence of human somatostatin receptor subtype SSTR2 (human) (P30874 whole entry): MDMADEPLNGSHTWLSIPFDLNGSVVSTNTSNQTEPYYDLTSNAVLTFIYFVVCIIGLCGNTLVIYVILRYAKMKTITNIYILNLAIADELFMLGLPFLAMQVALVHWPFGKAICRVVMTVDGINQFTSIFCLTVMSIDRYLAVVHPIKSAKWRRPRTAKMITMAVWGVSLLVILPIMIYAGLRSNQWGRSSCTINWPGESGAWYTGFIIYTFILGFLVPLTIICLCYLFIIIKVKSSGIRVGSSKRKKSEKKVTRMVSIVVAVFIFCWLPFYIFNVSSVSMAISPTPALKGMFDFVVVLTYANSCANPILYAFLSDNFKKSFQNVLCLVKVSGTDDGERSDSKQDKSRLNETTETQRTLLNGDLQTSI
T1 sequence (P30874 whole entry): as above
T2 sequence (P32745 whole entry): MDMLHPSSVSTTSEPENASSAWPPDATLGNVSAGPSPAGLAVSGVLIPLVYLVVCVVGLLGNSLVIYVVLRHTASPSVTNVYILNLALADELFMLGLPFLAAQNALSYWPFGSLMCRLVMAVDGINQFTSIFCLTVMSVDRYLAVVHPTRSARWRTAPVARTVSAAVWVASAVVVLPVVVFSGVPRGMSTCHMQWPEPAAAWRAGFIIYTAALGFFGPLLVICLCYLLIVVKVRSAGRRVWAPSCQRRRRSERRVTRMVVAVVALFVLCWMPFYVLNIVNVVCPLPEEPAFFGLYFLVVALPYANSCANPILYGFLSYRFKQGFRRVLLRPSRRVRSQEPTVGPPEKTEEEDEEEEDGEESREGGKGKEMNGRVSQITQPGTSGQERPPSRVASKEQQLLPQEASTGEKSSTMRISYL
Sequence of human somatostatin receptor subtype SSTR3 (human) (P32745 whole entry): as above
Sequence of human somatostatin receptor subtype SSTR4 (human) (P31391 whole entry): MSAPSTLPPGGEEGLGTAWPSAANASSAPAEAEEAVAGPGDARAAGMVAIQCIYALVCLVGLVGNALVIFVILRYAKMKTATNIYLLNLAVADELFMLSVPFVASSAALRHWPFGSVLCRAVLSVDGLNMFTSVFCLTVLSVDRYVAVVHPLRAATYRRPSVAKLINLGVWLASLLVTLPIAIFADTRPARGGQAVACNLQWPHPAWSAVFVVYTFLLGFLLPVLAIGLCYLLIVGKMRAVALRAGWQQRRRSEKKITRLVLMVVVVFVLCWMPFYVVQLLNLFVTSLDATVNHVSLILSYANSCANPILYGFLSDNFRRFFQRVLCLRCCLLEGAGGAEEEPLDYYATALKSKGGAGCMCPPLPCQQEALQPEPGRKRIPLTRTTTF
T5 sequence (P31391 whole entry): as above
T4 sequence (P30872 whole entry): as the sequence (P30872 whole entry) above

B1: Compound 15 (peptide)
peptide: {FITC′-GABA}-[dF]CFW[dW]RTF[N(2-mercaptoethyl)Gly]-NH2
modifications: disulfide 2-9
For the molecule B1, the Relative binding affinity came to 7.5% in assay [1]; 4% in assay [2]; 13.5% in assay [3]; 9% in assay [4]; 5% in assay [5]. The Adjusted binding affinity in [6] stood at 0.56; in assay [7], 0.3; in assay [8] it was 1; in assay [9], 0.67; in assay [10] it was 0.37. In addition, the Binding affinity relative to Compound 1 (% of Compound 1) turned out to be 26 in assay [11]; 133 in assay [12]; 79 in assay [13]; 40 in assay [14]; 77 in assay [15].

B2: Compound 9 (peptide)
peptide: {FITC′-GABA}-CRF[dW]KTF[N(2-mercaptoethyl)Gly]-NH2
modifications: disulfide 1-8
notes: Synthetic cyclic peptide-fluorescent agent conjugate; also called 21
As to B2, the Adjusted binding affinity in assay [16] came out at 0.5; in assay [17], 0.7; in [18], 1; in assay [19] it was 0; in assay [20], 0.75. Further, the Relative binding affinity in assay [21] turned out to be 10%; in assay [22], 14%; in assay [23], 20%; in assay [24] it was 15%. Also, the “Binding affinity relative to Compound 1” value in [25] is 154 % of Compound 1; in assay [26] it was 82 % of Compound 1; in assay [27] it was 70 % of Compound 1; in assay [28], 0 % of Compound 1; in assay [29], 67 % of Compound 1.

B3: Compound 4 (peptide)
peptide: {FITC′-GABA}-[dF]CYW[dW]KTF[N(2-mercaptoethyl)Gly]-NH2
modifications: disulfide 2-9
Regarding B3, the Relative binding affinity was found to be 9.3% in assay [1]; 3.6% in [2]; 15.7% in assay [3]; 13.3% in assay [4]; 4.3% in assay [5]. The Adjusted binding affinity in assay [6] was 0.4; in assay [7], 0.13; in assay [8] it was 1; in assay [9], 0.33; in [10], 0.33. The Binding affinity relative to Compound 1 (% of Compound 1) worked out at 4 in assay [11]; 100 in assay [12]; 141 in assay [13]; 36 in assay [14]; 123 in [15].
